The record followed here is IntAct's records for PubMed 33199366.

B1: Serine/threonine-protein kinase DCLK1 (Homo sapiens), O15075 (parent)
chain: MSFGRDMELEHFDERDKAQRYSRGSRVNGLPSPTHSAHCSFYRTRTLQTLSSEKKAKKVRFYRNGDRYFKGIVYAISPDRFRSFEALLADLTRTLSDNVNLPQGVRTIYTIDGLKKISSLDQLVEGESYVCGSIEPFKKLEYTKNVNPNWSVNVKTTSASRAVSSLATAKGSPSEVRENKDFIRPKLVTIIRSGVKPRKAVRILLNKKTAHSFEQVLTDITDAIKLDSGVVKRLYTLDGKQVMCLQDFFGDDDIFIACGPEKFRYQDDFLLDESECRVVKSTSYTKIASSSRRSTTKSPGPSRRSKSPASTSSVNGTPGSQLSTPRSGKSPSPSPTSPGSLRKQRSSQHGGSSTSLASTKVCSSMDENDGPGEEVSEEGFQIPATITERYKVGRTIGDGNFAVVKECVERSTAREYALKIIKKSKCRGKEHMIQNEVSILRRVKHPNIVLLIEEMDVPTELYLVMELVKGGDLFDAITSTNKYTERDASGMLYNLASAIKYLHSLNIVHRDIKPENLLVYEHQDGSKSLKLGDFGLATIVDGPLYTVCGTPTYVAPEIIAETGYGLKVDIWAAGVITYILLCGFPPFRGSGDDQEVLFDQILMGQVDFPSPYWDNVSDSAKELITMMLLVDVDQRFSAVQVLEHPWVNDDGLPENEHQLSVAGKIKKHFNTGPKPNSTAAGVSVIATTALDKERQVFRRRRNQDVRSRYKAQPAPPELNSESEDYSPSSSETVRSPNSPF
partner: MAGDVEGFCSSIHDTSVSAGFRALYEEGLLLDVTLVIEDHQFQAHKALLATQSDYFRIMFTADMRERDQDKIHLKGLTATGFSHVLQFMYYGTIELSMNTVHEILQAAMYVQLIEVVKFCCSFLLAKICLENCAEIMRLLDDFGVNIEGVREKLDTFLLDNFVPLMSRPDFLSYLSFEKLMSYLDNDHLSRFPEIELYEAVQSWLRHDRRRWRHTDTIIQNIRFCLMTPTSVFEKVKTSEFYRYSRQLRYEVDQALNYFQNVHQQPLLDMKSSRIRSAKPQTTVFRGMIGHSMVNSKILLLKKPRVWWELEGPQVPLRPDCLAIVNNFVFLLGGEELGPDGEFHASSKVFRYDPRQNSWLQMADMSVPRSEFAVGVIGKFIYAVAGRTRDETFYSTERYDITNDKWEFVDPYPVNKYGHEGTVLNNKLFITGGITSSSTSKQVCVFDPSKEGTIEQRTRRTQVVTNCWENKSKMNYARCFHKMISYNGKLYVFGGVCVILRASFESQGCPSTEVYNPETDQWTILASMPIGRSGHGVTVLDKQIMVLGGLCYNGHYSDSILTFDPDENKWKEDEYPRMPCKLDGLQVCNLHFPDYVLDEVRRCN
B2: Serine/threonine-protein kinase DCLK2 (Homo sapiens), Q8N568 (parent)
chain: MASTRSIELEHFEERDKRPRPGSRRGAPSSSGGSSSSGPKGNGLIPSPAHSAHCSFYRTRTLQALSSEKKAKKARFYRNGDRYFKGLVFAISSDRFRSFDALLIELTRSLSDNVNLPQGVRTIYTIDGSRKVTSLDELLEGESYVCASNEPFRKVDYTKNINPNWSVNIKGGTSRALAAASSVKSEVKESKDFIKPKLVTVIRSGVKPRKAVRILLNKKTAHSFEQVLTDITEAIKLDSGVVKRLCTLDGKQVTCLQDFFGDDDVFIACGPEKFRYAQDDFVLDHSECRVLKSSYSRSSAVKYSGSKSPGPSRRSKSPASVNGTPSSQLSTPKSTKSSSSSPTSPGSFRGLKQISAHGRSSSNVNGGPELDRCISPEGVNGNRCSESSTLLEKYKIGKVIGDGNFAVVKECIDRSTGKEFALKIIDKAKCCGKEHLIENEVSILRRVKHPNIIMLVEEMETATELFLVMELVKGGDLFDAITSSTKYTERDGSAMVYNLANALRYLHGLSIVHRDIKPENLLVCEYPDGTKSLKLGDFGLATVVEGPLYTVCGTPTYVAPEIIAETGYGLKVDIWAAGVITYILLCGFPPFRSENNLQEDLFDQILAGKLEFPAPYWDNITDSAKELISQMLQVNVEARCTAGQILSHPWVSDDASQENNMQAEVTGKLKQHFNNALPKQNSTTTGVSVIMNTALDKEGQIFCSKHCQDSGRPGMEPISPVPPSVEEIPVPGEAVPAPTPPESPTPHPPPAAPGGERAGTWRRHRD
partner: B1 partner
B3: Neuronal migration protein doublecortin (Mus musculus), O88809 (parent)
chain: MELDFGHFDERDKASRNMRGSRMNGLPSPTHSAHCSFYRTRTLQALSNEKKAKKVRFYRNGDRYFKGIVYAVSSDRFRSFDALLADLTRSLSDNINLPQGVRYIYTIDGSRKIGSMDELEEGESYVCSSDNFFKKVEYTKNVNPNWSVNVKTSANMKAPQSLASSNSAQARENKDFVRPKLVTIIRSGVKPRKAVRVLLNKKTAHSFEQVLTDITEAIKLETGVVKKLYTLDGKQVTCLHDFFGDDDVFIACGPEKFRYAQDDFSLDENECRVMKGNPSAAAGPKASPTPQKTSAKSPGPMRRSKSPADSGNDQDANGTSSSQLSTPKSKQSPISTPTSPGSLRKHKVDLYLPLSLDDSDSLGDSM
partner: B1 partner

Variants of B1 are the subject of one assay. Particulars: with klh15_human KLHL15, Q96M94.
Turning to Y265L, the “effect of a mutation on the interaction” value was “decreasing interaction”.

Variants of B2 are the subject of the next assay. To be noted: with klh15_human KLHL15, Q96M94.
As for Y276L, the “effect of a mutation on the interaction” value is listed as “decreasing interaction”.

Variants of B3 are the subject of another assay. Particulars: with klh15_human KLHL15, Q96M94.
On to MELDFGHFDERDKASRNMRGSRMNGLPSPTHSAHCSFYRTRTLQALSNEKKAKKVRFYRNGDRYFKGIVYAVSSDRFRSFDALLADLTRSLSDNINLPQGVRYIYTIDGSRKIGSMDELEEGESYVCSSDNFFKKVEYTKNVNPNWSVNVKTSANMKAPQSLASSNSAQARENKDFVRPKLVTIIRSGVKPRKAVRVLLNKKTAHSFEQVLTDITEAIKLETGVVKKLYTLDGKQVTCLHDFFGDDDVFIACGPEKFRLAQDDFSLDENECRVMKGNPSAAAGPKASPTPQKTSAKSPGPMRRSKSPADSGNDQDANGTSSSQLSTPKSKQSPISTPTSPGSLRKHKVDLYLPLSLDDSDSLGDSM [Y259L], for which the “effect of a mutation on the interaction” value was “decreasing interaction”.
